The target in this data set is myc-CRAF (wild type).

B1: FLAG-KSR (wild-type KSR1) (protein)
chain: MDRAALRAAAMGEKKEGGGGGAAADGGAGAAVSRALQQCGQLQKLIDISIGSLRGLRTKCSVSNDLTQQEIRTLEAKLVKYICKQQQSKLSVTPSDRTAELNSYPRFSDWLYIFNVRPEVVQEIPQELTLDALLEMDEAKAKEMLRRWGASTEECSRLQQALTCLRKVTGLGGEHKMDSGWSSTDARDSSLGPPMDMLSSLGRAGASTQGPRSISVSALPASDSPVPGLSEGLSDSCIPLHTSGRLTPRALHSFITPPTTPQLRRHAKLKPPRTPPPPSRKVFQLLPSFPTLTRSKSHESQLGNRIDDVTPMKFELPHGSPQLVRRDIGLSVTHRFSTKSWLSQVCNVCQKSMIFGVKCKHCRLKCHNKCTKEAPACRITFLPLARLRRTESVPSDINNPVDRAAEPHFGTLPKALTKKEHPPAMNLDSSSNPSSTTSSTPSSPAPFLTSSNPSSATTPPNPSPGQRDSRFSFPDISACSQAAPLSSTADSTRLDDQPKTDVLGVHEAEAEEPEAGKSEAEDDEEDEVDDLPSSRRPWRGPISRKASQTSVYLQEWDIPFEQVELGEPIGQGRWGRVHRGRWHGEVAIRLLEMDGHNQDHLKLFKKEVMNYRQTRHENVVLFMGACMNPPHLAIITSFCKGRTLHSFVRDPKTSLDINKTRQIAQEIIKGMGYLHAKGIVHKDLKSKNVFYDNGKVVITDFGLFGISGVVREERRENQLKLSHDWLCYLAPEIVREMIPGRDEDQLPFSKAADVYAFGTVWYELQARDWPFKHQPAEALIWQIGSGEGVRRVLASVSLGKEVGEILSACWAFDLQERPSFSLLMDMLERLPKLNRRLSHPGHFWKSADINSSKVMPRFERFGLGTLESGNPKM
On to B1, for which the “in vitro kinase activity towards purified MEK in KSR immunoprecipitates, phospho-MEK antibody (FIG. 1G)” value is “Treatment of cells with PLX4720 induced kinase activity towards MEK in the KSR immunoprecipitates and only occurred when KSR and CRAF were co-expressed together”.

Source of the values: US20120202233.
